The text below walks through data of patent publication US20240425606A1, “ANTI-IL-11RA ANTIBODIES” (Lassen Therapeutics 1, Inc., priority 2021, published 2024).

To fix the notation:
T1: hIL-1 IR (Homo sapiens, UniProt Q14626)
T1 sequence (Q14626 23-422): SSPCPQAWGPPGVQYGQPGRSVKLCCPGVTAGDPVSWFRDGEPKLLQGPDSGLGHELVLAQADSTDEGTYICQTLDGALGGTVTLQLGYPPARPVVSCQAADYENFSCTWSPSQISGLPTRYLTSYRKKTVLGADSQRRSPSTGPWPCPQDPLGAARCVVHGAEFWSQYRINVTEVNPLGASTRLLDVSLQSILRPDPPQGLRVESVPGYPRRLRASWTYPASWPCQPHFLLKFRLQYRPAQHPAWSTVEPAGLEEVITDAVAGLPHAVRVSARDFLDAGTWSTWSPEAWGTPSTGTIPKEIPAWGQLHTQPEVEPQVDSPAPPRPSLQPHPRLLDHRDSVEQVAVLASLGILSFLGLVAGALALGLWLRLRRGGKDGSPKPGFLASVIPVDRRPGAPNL

B1: mAb20: anti-IL-11Rα antibody; VH SEQ ID NO: 231, VL SEQ ID NO: 232; heavy chain Kabat position 31 variant of mAb5 (antibody, V domains shown)
VH: EVQLLESGGGLVQPGGSLRLSCAASGFTFSGYSMTWVRQAPGKGLEWVSSIVPYGDLTQYADSVKGRFTISRDNSKNTLYLQMNSLRAEDTAVYYCAKGPGWGSFDLWGRGTLVTVSS
VL: DIQMTQSPSSLSASVGDRVTITCQASQDINNYLNWYQQKPGKAPKLLIYDASNLQTGVPSRFSGSGSGTDFTFTISSLQPEDIATYYCQQHESQSPTFGPGTKVDIK
modifications: mAb20 VH Chain; mAb20 VL Chain
notes: anti-IL-11Rα antibody; heavy chain Kabat position 31 variant of mAb5
B2: mAb22: anti-IL-11Rα antibody; VH SEQ ID NO: 235, VL SEQ ID NO: 236; heavy chain Kabat position 31 variant of mAb5 (antibody, V domains shown)
VH: EVQLLESGGGLVQPGGSLRLSCAASGFTFSIYSMTWVRQAPGKGLEWVSSIVPYGDLTQYADSVKGRFTISRDNSKNTLYLQMNSLRAEDTAVYYCAKGPGWGSFDLWGRGTLVTVSS
VL: DIQMTQSPSSLSASVGDRVTITCQASQDINNYLNWYQQKPGKAPKLLIYDASNLQTGVPSRFSGSGSGTDFTFTISSLQPEDIATYYCQQHESQSPTFGPGTKVDIK
modifications: mAb22 VH Chain; mAb22 VL Chain
notes: as for B1
B3: mAb25: anti-IL-11Rα antibody; VH SEQ ID NO: 241, VL SEQ ID NO: 242; heavy chain Kabat position 31 variant of mAb5 (antibody, V domains shown)
VH: EVQLLESGGGLVQPGGSLRLSCAASGFTFSMYSMTWVRQAPGKGLEWVSSIVPYGDLTQYADSVKGRFTISRDNSKNTLYLQMNSLRAEDTAVYYCAKGPGWGSFDLWGRGTLVTVSS
VL: DIQMTQSPSSLSASVGDRVTITCQASQDINNYLNWYQQKPGKAPKLLIYDASNLQTGVPSRFSGSGSGTDFTFTISSLQPEDIATYYCQQHESQSPTFGPGTKVDIK
modifications: mAb25 VH Chain; mAb25 VL Chain
notes: as for B1
B4: mAb24: anti-IL-11Rα antibody; VH SEQ ID NO: 239, VL SEQ ID NO: 240; heavy chain Kabat position 31 variant of mAb5 (antibody, V domains shown)
VH: EVQLLESGGGLVQPGGSLRLSCAASGFTFSLYSMTWVRQAPGKGLEWVSSIVPYGDLTQYADSVKGRFTISRDNSKNTLYLQMNSLRAEDTAVYYCAKGPGWGSFDLWGRGTLVTVSS
VL: DIQMTQSPSSLSASVGDRVTITCQASQDINNYLNWYQQKPGKAPKLLIYDASNLQTGVPSRFSGSGSGTDFTFTISSLQPEDIATYYCQQHESQSPTFGPGTKVDIK
modifications: mAb24 VH Chain; mAb24 VL Chain
notes: as for B1
B5: mAb26: anti-IL-11Rα antibody; VH SEQ ID NO: 243, VL SEQ ID NO: 244; heavy chain Kabat position 31 variant of mAb5 (antibody, V domains shown)
VH: EVQLLESGGGLVQPGGSLRLSCAASGFTFSNYSMTWVRQAPGKGLEWVSSIVPYGDLTQYADSVKGRFTISRDNSKNTLYLQMNSLRAEDTAVYYCAKGPGWGSFDLWGRGTLVTVSS
VL: DIQMTQSPSSLSASVGDRVTITCQASQDINNYLNWYQQKPGKAPKLLIYDASNLQTGVPSRFSGSGSGTDFTFTISSLQPEDIATYYCQQHESQSPTFGPGTKVDIK
modifications: mAb23 VH Chain; mAb26 VL Chaim
notes: as for B1

For the experiment, the target named is T1, hIL-1 IR. Nature of the experiment: Alternate biolayer interferometry assay (AHC biosensors) ranking mAbs 16-32 against mAb5. The experiment is classed as binding. Conditions: compared to mAb5. The text has this:
A further series of antibodies were designed in which the residue at Kabat position 31 of the heavy chain was varied (mAbs 16-32). In this case an alternate biolayer interferometry assay was used to initially rank the antibodies compared to mAb5, the closest relative in sequence to mAbs 16-32. MAbs were loaded onto anti-human constant domain (AHC) biosensors (FortdBio) in 10× kinetics buffer consisting of PBS, 0.1% BSA, 0.02% Tween 20 for 120 s to achieve a spectral shift value of 0.8 to 1.2 nm. Association was carried out in the presence of 2-fold dilution series of hIL-1 IR and was allowed to proceed for 120 s. Dilution series started 10 nM. The dissociation in 10× kinetics buffer for 1200 s. Binding kinetic measurements were taken on an Octet RED96e instrument.
A general note: Biolayer interferometry detects binding as a change in optical thickness at a sensor tip.
With B1, the qualitative assessment result is recorded as “similar”. For the molecule B2, the qualitative assessment result is reported as “similar”.

With B3, the qualitative assessment entry is given as “similar”. With B4 the entry was “similar”; with B5, “decreased”.
